According to patent US20210403506A1 (XDCEXPLORER SHANGHAI, published 2021):
Where two headings read alike, the source gives them in different places. Numbered stars: 1 amine (or outer) side, 2 acyl side, 3 side chain; on linkers, the order of the positions; unused ones are H or OH. Square brackets hold non-standard residues; d marks the D form. Primed or numbered codes have the meaning given here. Ends that are not written are not given here. * marks the point of attachment. TP5C = (S)-4,5,6,7-tetrahydrothieno[2,3-c]pyridine-5-carboxylic acid, O=C([C@@H]1Cc2ccsc2CN1[*:1])[*:2]; TP6C = (S)-4,5,6,7-tetrahydrothieno[2,3-c]pyridine-6-carboxylic acid, O=C([C@@H]1Cc2ccsc2CN1[*:1])[*:2]; Diphenylacetyl = O=C(C(c1ccccc1)c1ccccc1)*; dNMeY = CN[C@H](Cc1ccc(O)cc1)C(=O)O; Hydrocinnamoyl = O=C(CCc1ccccc1)*; 3‑phenylpropyl = c1ccc(CCC*)cc1; Tic = O=C(O)[C@@H]1Cc2ccccc2CN1; NMeL = CN[C@@H](CC(C)C)C(=O)O; NMeS = CN[C@@H](CO)C(=O)O; Nle = CCCC[C@H](N)C(=O)O; dTi1c = not defined here; Nva = CCC[C@H](N)C(=O)O; Thz′ = not defined here

T1: human Chemokine like receptor 1 (human, UniProt Q99788 1-373)
T1 sequence (looked up): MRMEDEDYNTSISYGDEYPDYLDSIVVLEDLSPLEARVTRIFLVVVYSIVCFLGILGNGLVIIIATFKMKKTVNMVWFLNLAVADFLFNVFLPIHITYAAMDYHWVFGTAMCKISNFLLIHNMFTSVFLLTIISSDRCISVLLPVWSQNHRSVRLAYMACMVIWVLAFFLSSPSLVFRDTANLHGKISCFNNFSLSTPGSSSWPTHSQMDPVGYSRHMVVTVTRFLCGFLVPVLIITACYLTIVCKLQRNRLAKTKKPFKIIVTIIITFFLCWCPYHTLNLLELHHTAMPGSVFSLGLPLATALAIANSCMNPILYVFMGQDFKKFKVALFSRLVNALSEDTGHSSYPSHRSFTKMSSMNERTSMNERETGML


Columns and labels:
[1] = target: T1, human Chemokine like receptor 1; test: cell-based or functional assay
[2] = target: T1, human Chemokine like receptor 1; test: cell-based or functional assay; remark: listed apart in the source

Binder | EC50 (µM), activation of Tango CMKLR1-bla U2OS cells [1] [µM] | EC50 (µM), activation of Tango CMKLR1-bla U2OS cells [2] [µM]
[dY]FLP[dS]QF[dA][TP6C]S-OH (N-terminus assumed; SMILES CC(C)C[C@H](NC(=O)[C@H](Cc1ccccc1)NC(=O)[C@H](N)Cc1ccc(O)cc1)C(=O)N1CCC[C@H]1C(=O)N[C@H](CO)C(=O)N[C@@H](CCC(N)=O)C(=O)N[C@@H](Cc1ccccc1)C(=O)N[C@H](C)C(=O)N1Cc2sccc2C[C@H]1C(=O)N[C@@H](CO)C(=O)O) [YW-159] | 0.018 | 
phenethylcarbamoyl-[dY]FLP[dS]QF[dA][Tic]S-OH [YW-72] | 0.045 | 
{3‑phenylpropyl}-[dY]FLP[dS]QF[dA][Tic]S-OH (SMILES CC(C)C[C@H](NC(=O)[C@H](Cc1ccccc1)NC(=O)[C@@H](Cc1ccc(O)cc1)NCCCc1ccccc1)C(=O)N1CCC[C@H]1C(=O)N[C@H](CO)C(=O)N[C@@H](CCC(N)=O)C(=O)N[C@@H](Cc1ccccc1)C(=O)N[C@H](C)C(=O)N1Cc2ccccc2C[C@H]1C(=O)N[C@@H](CO)C(=O)O) [YW-74] | 0.0062 | 
[dNMeY]FLP[dS]QF[dA][dTi1c]S-OH (reading uncertain; also: printed as (D-NMe-Tyr)-Phe-Leu-Pro-(D-Ser)-Gln-Phe-(D-Ala)-(D-Ti1c)-Ser) [YW-154] | 0.034 | 
[dY]F[Nva]P[dS]QF[dA][Tic]S [YW-196] | 0.039 | 
{4‑phenylbutanoyl}-[dY]FLP[dS]QF[dA][Tic]S-OH [YW-75] | 0.05 | 
{2,3,4‑trihydroxybenzoyl}-[dY]FLP[dS]QF[dA][Tic]S-OH [YW-129] | 0.0091 | 
{2,6‑dihydroxybenzoyl}-[dY]FLP[dS]QF[dA][Tic]S-OH [YW-128] | 0.02 | 
{2,3‑dihydroxybenzoyl}-[dY]FLP[dS]QF[dA][Tic]S-OH [YW-127] | 0.01 | 
phenethylcarbamothioyl-[dY]FLP[dS]QF[dA][Tic]S-OH [YW-73] | 0.028 | 
[dY]F[Nle]P[dS]QF[dA][Tic]S [YW-197] | 0.01 | 
{4‑biphenylacetyl}-[dY]FLP[dS]QF[dA][Tic]S-OH [YW-77] | 0.053 | 
[dY]FLP[dS]QF[dA][Tic]S-NH2 (N-terminus assumed; SMILES CC(C)C[C@H](NC(=O)[C@H](Cc1ccccc1)NC(=O)[C@H](N)Cc1ccc(O)cc1)C(=O)N1CCC[C@H]1C(=O)N[C@H](CO)C(=O)N[C@@H](CCC(N)=O)C(=O)N[C@@H](Cc1ccccc1)C(=O)N[C@H](C)C(=O)N1Cc2ccccc2C[C@H]1C(=O)N[C@@H](CO)C(N)=O) [YW-189] | 0.0068 | 
Hydrocinnamoyl-[dY]FLP[dS]QF[dA][Tic]S-OH (SMILES CC(C)C[C@H](NC(=O)[C@H](Cc1ccccc1)NC(=O)[C@@H](Cc1ccc(O)cc1)NC(=O)CCc1ccccc1)C(=O)N1CCC[C@H]1C(=O)N[C@H](CO)C(=O)N[C@@H](CCC(N)=O)C(=O)N[C@@H](Cc1ccccc1)C(=O)N[C@H](C)C(=O)N1Cc2ccccc2C[C@H]1C(=O)N[C@@H](CO)C(=O)O) [YW-71] | 0.031 | 
[dY]FLP[dS]QF[dA][TP5C]S-OH (N-terminus assumed; SMILES CC(C)C[C@H](NC(=O)[C@H](Cc1ccccc1)NC(=O)[C@H](N)Cc1ccc(O)cc1)C(=O)N1CCC[C@H]1C(=O)N[C@H](CO)C(=O)N[C@@H](CCC(N)=O)C(=O)N[C@@H](Cc1ccccc1)C(=O)N[C@H](C)C(=O)N1Cc2sccc2C[C@H]1C(=O)N[C@@H](CO)C(=O)O) [YW-158] | 0.065 | 
{5‑phenylpentanoyl}-[dY]FLP[dS]QF[dA][Tic]S-OH [YW-76] | 0.043 | 
{3,5‑dihydroxybenzoyl}-[dY]FLP[dS]QF[dA][Tic]S-OH [YW-79] | 0.0047 | 
Diphenylacetyl-[dY]FLP[dS]QF[dA][Tic]S-OH (SMILES CC(C)C[C@H](NC(=O)[C@H](Cc1ccccc1)NC(=O)[C@@H](Cc1ccc(O)cc1)NC(=O)C(c1ccccc1)c1ccccc1)C(=O)N1CCC[C@H]1C(=O)N[C@H](CO)C(=O)N[C@@H](CCC(N)=O)C(=O)N[C@@H](Cc1ccccc1)C(=O)N[C@H](C)C(=O)N1Cc2ccccc2C[C@H]1C(=O)N[C@@H](CO)C(=O)O) [YW-78] | 0.026 | 
[dY]FLP[dS]QF[dA][Tic]S-OH [YW-3] |  | 0.019
[dNMeY]F[NMeL][Thz′][dS]QF[dA][Tic][NMeS] (reading uncertain) [YW-124] | 0.0013 | 
